Results published in PMC10119177 (2023).

B1: recombinant CEACAM1 N-terminal domain with His tag (rCEACAM1-N-HIS), wildtype [human] / IgI3 domain of R28 (R28-IgI3), wildtype [Streptococcus pyogenes] (parent complex)
chain 1: AQLTTESMPFNVAEGKEVLLLVHNLPQQLFGYSWYKGERVDGNRQIVGYAIGTQQATPGPANSGRETIYPNASLLIQNVTQNDTGFYTLQVIKSDLVNEEATGQFHVY
chain 2: TAPTLTVTPEQQTVKVDEDITFTVTVEDENEVELGLDDLKAKYENDIIGARVKIKYLTKEPNKKVMEVTIMKATLADKGAITFTAKDKAGNQAEPKTVTINVLPLKDSNEPKLPSTGGS

Variants of: B1
Test: Dynabead binding assay (Dynabeads coated with R28-IgI3, DB.R28IgI3, incubated with rCC1-N variants); parent: 23; read off a plot

Row | Variant | response
1 | chain 1 L96A | ~6
2 | chain 1 V97A | ~100
3 | chain 1 I92A | ~5
4 | chain 1 F30A | ~5.5
5 | chain 1 Q90A | ~10
6 | chain 1 Q45A | ~20
7 | chain 1 N98A | ~90

Variants of: B1
Test: Dynabead binding assay (Dynabeads coated with R28-IgI3, DB.R28IgI3, incubated with rCC1-N); parent: 33; read off a plot

Row | Variant | response
8 | chain 2 I47A | ~5.5
9 | chain 2 K59A | ~21
10 | chain 2 Y56A | ~7
11 | chain 2 I54A | ~19
12 | chain 2 E44A | ~40
13 | chain 2 K40A | ~7
14 | chain 2 I48A | ~5.5
